In patent US20260125725A1 (ANTHEIA, published 2026):

B1: THS2 (thebaine synthesis polypeptide isoform, SEQ ID NO. 6) (enzyme)
chain: MAPLGVSGLVGKLSTELEVDCDAEKYYNMYKHGEDVKKAVPHLCVDVKIISGDPTSSGCIKEWNVNIDGKTIRSVEETTHDDETKTLRHRVFEGDVMKDFKKFDTIMVVNPKPDGNGCVVTRSIEYEKTNENSPTPFDYLQFGHQAIEDMNKYLRDSESN
notes: Purified recombinant protein from E. coli, made from a codon-optimized gene; 163 amino acids; also called Betv1; Betv1M
B2: THS2s (N-terminally truncated splice variant of THS2, SEQ ID NO. 32) (enzyme)
chain: MYKHGEDVKKAVPHLCVDVKIISGDPTSSGCIKEWNVNIDGKTIRSVEETTHDDETKTLRHRVFEGDVMKDFKKFDTIMVVNPKPDGNGCVVTRSIEYEKTNENSPTPFDYLQFGHQAIEDMNKYLRDSESN
notes: Purified recombinant His6-tagged protein from E. coli; 133 amino acids; also called BetV1-1S; Bet v1-1S
B3: THS1s (N-terminally truncated splice variant of THS1, SEQ ID NO. 81) (enzyme)
chain: MYKHGEDVQKAVPHLCVDVKVISGDPTRSGCIKEWNVNIDGKTIRSVEETTHNDETKTLRHRVFEGDMMKDFKKFDTIMVVNPKPDGNGCVVTRSIEYEKTNENSPTPFDYLQFGHQAIEDMNKYLRDSE
notes: Purified recombinant His6-tagged protein from E. coli; 131 amino acids
B4: THS1 (thebaine synthesis polypeptide isoform, SEQ ID NO. 80) (enzyme)
chain: MDSINSSIYFCAYFRELIIKLLMAPLGVSGLVGKLSTELEVDCDAEKYYNMYKHGEDVQKAVPHLCVDVKVISGDPTRSGCIKEWNVNIDGKTIRSVEETTHNDETKTLRHRVFEGDMMKDFKKFDTIMVVNPKPDGNGCVVTRSIEYEKTNENSPTPFDYLQFGHQAIEDMNKYLRDSE
notes: Purified recombinant protein from E. coli, made from a codon-optimized gene; It carries a His6-tag; 181 amino acids; also called thebaine synthase 1

Columns and labels:
[1] = target: the molecule itself; assay: size exclusion chromatography of purified recombinant THS2 (FIG. 15B)
[2] = target: the molecule itself; assay: cross-linking, SDS-PAGE and immunoblot (FIG. 15A)
Protocol: (§1) All versions of THS1 and THS2 transcripts were codon-optimized and expressed in E. coli. Purified recombinant THS proteins were added to SalAT-coupled enzyme assays. […] Chemical cross-linking with the purified, recombinant THS proteins was performed to confirm dimerization (FIGS. 15A and 15B). Both THS1 and THS2 can form homodimers, and also display the formation of higher molecular weight oligomers at lower abundance. […] To further investigate the relative abundance of THS isoforms in the plant, protein extracts derived from whole stem, latex-free stem, and latex isolated from the T chemotype were subjected to proteomics analysis (FIG. 11C). In detected peptides with at least one amino acid substitution spectral counts for THS2 were considerably higher than for THS1, consistent with the higher abundance of THS2, compared with THS1, transcripts (FIG. 12C).
(§2) Cross-linking experiments. Bis[sulfosuccinimidyl] suberate (BS3) was used as cross-linking reagent and prepared in PBS buffer at a concentration of 10 mM, of which 2 μL was added to 20 μL of purified recombinant protein (1 μg/μL). After incubation on ice for 1 h, 5 μL of 5×SDS (10% w/v) was added to quench the reaction. Samples were then boiled for 5 min and subjected to SDS-PAGE and immunoblot analysis.

[3] = target: the molecule itself; assay: BS3 chemical cross-linking of purified recombinant protein, SDS-PAGE and immunoblot
Protocol: as §1, §2

| Protein | binding result [3] | also measured |
| --- | --- | --- |
| B1 | – | binding result [1]: binds |
| B2 | – | binding result [2]: binds |
| B3 | binds | – |
| B4 | binds | – |
